Results: patent US20260263594A1
pKd: −log10 of the molar value. “And” between values parts separate entries of the source, which are not always exact repeats. Equal values may be shown once.

Experiments:
[1] = biological target: Holo-transferrin (Homo sapiens (Human)) (UniProt P02787); assay: SPR, Biacore T200, multi-cycle, Tbp-B at 6.17-500 nM; Run-1
[2] = biological target: Holo-transferrin (Homo sapiens (Human)) (UniProt P02787); assay: SPR, Biacore T200, multi-cycle, Tbp-B at 6.17-500 nM; Run-2
[3] = biological target: Holo-transferrin (Homo sapiens (Human)) (UniProt P02787); assay: SPR, Biacore T200, multi-cycle, Tbp-B at 6.17-500 nM; Run-3
[4] = biological target: Holo-transferrin (Homo sapiens (Human)) (UniProt P02787); assay: SPR, Biacore T200, multi-cycle, Tbp-B at 6.17-500 nM; average of 3 runs

UniProt P02787, sequence (P02787 20-698 limits assumed, form in doubt): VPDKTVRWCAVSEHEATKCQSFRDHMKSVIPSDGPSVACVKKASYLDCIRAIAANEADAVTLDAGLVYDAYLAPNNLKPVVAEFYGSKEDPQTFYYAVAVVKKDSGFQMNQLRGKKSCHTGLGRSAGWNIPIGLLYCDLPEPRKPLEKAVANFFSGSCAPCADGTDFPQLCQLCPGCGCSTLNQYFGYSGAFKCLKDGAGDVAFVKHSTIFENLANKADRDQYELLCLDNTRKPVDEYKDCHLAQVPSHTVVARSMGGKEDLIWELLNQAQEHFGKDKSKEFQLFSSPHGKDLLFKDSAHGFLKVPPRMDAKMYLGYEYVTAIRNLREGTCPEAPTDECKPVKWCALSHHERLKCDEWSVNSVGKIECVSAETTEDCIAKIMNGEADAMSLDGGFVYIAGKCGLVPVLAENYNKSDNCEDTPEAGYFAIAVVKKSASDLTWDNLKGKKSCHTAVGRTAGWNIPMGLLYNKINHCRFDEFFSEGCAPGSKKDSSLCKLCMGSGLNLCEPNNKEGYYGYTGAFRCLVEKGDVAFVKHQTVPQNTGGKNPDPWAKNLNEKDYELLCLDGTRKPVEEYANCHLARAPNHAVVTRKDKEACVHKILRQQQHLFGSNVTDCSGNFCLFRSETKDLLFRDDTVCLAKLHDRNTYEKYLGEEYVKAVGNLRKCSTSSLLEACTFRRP

With “recombinant transferrin binding protein B (r-Tbp-B) from Neisseria meningitidis serogroup C / serotype 2a (strain FAM18) (receptor)” the pKd [1] was 8.12 and 7.79 and 7.74, the koff [1] was 0.0187 s⁻¹ and 0.0081 s⁻¹ and 0.0083 s⁻¹ and the pKd [2] was 8.09 and 7.68 and 7.72. The koff [2] was 0.019 s⁻¹ and 0.009 s⁻¹, the pKd [3] was 8.09 and 7.72 and 7.66 and the koff [3] was 0.02 s⁻¹ and 0.009 s⁻¹. For the same substance, the pKd [4] was 8.10 and 7.73 and 7.71 and the koff [4] was 0.019 s⁻¹ and 0.009 s⁻¹.
